Assay [1] has as its target T1, human CD73 on COR-L23 lung carcinoma cells (human) (UniProt P21589).
T1 sequence: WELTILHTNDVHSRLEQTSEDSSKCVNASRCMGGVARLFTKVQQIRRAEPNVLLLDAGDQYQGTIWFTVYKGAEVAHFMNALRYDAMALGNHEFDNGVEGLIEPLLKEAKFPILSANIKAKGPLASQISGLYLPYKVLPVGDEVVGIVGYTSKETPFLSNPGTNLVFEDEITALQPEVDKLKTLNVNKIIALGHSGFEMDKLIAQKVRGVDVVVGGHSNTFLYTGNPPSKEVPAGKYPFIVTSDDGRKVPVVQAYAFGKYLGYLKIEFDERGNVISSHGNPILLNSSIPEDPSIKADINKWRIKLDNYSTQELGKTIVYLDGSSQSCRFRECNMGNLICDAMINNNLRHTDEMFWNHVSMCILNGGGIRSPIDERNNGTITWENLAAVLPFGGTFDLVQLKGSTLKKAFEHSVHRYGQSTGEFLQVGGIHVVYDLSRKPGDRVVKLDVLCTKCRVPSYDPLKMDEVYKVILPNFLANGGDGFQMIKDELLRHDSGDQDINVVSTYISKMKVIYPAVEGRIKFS

Assay [2] concerns the target T1, human CD73 on COR-L23 lung carcinoma cells (human). As to the kind of experiment: cell-based or functional assay.
In assay [3] the target is T2, soluble CD73 dimer (human, UniProt P21589 27-549, limits assumed).
T2 construct: CD73 in the flow (SPR) or in solution (BLI binning); also called soluble human CD73
T2 sequence: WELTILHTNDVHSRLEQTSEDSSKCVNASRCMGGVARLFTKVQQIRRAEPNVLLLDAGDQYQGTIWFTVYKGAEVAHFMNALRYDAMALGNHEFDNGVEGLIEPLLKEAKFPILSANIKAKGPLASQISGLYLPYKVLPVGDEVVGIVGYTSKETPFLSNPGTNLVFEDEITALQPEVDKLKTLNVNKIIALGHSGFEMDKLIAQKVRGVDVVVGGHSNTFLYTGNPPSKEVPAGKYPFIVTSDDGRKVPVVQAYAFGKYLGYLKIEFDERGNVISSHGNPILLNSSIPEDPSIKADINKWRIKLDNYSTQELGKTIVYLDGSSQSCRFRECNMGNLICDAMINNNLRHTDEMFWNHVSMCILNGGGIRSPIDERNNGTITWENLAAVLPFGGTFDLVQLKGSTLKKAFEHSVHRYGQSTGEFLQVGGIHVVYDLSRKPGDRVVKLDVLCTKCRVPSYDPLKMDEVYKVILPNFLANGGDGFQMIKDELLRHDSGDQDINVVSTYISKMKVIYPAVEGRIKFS
Description: SPR, antibody captured on Protein A chip, CD73 in flow; Langmuir 1:1 fit. A general note: SPR reads the build-up and loss of mass on a sensor chip optically.

Assay [4] deals with T2, soluble CD73 dimer. As to the kind of experiment: SPR, antibody captured on Protein A chip, CD73 in flow; biphasic fit, component of abundance 9%.
Assay [5] has as its target T2, soluble CD73 dimer. As to the kind of experiment: SPR, antibody captured on Protein A chip, CD73 in flow; biphasic fit, component of abundance 45%.
For assay [6], the target named is T2, soluble CD73 dimer. Description: SPR, antibody captured on Protein A chip, CD73 in flow; biphasic fit, component of abundance 55%.
In assay [7] the target is T2, soluble CD73 dimer. Description: SPR, antibody captured on Protein A chip, CD73 in flow; biphasic fit, component of abundance 91%.
Assay [8] deals with T2, soluble CD73 dimer. As to the kind of experiment: SPR, antibody captured on Protein A chip, CD73 in flow; Langmuir ka with major component kd.
The target of assay [9] is T2, soluble CD73 dimer. As to the kind of experiment: SPR, antibody captured on chip, CD73 in flow; biphasic fit, share by T0 intercept of the component with kd 6.00E-03 1/s.
For assay [10], the target named is T2, soluble CD73 dimer. As to the kind of experiment: SPR, antibody captured on chip, CD73 in flow; biphasic fit, share by T0 intercept of the component with kd 7.80E-05 1/s.
Assay [11] concerns the target T2, soluble CD73 dimer. As to the kind of experiment: SPR, antibody captured on chip, CD73 in flow; biphasic fit, share after 300 s binding phase of the component with ka 1.16E+05 1/Ms.
Assay [12] addresses T2, soluble CD73 dimer. Description: SPR, antibody captured on chip, CD73 in flow; biphasic fit, share after 300 s binding phase of the component with ka 1.19E+06 1/Ms.

B1: TB19/TC29 (bispecific antibody, part only; not given: TC29 arm; constant regions, V domains shown, part only)
VH: QEQLQESGPGLVKPSETLSLTCTVSGGSIRNNYYNWIRQPAGKGLEWIGRIYISGTTNSNPSLKSRVTMSIDTSKNQFSLKLSSVTAADTAIYYCAREHYVSGTSLDNWGQGTLVTVSS
VL: EIVMTQSPTTLSLSPGERATLSCRASQSVNTNYFSWYQQKPGLTPRLLIYGTSTRATGIPARFSGSGSGTDFTLTISSLQPEDFGIYYCQQDYNLPYTFGQGTYLEIK
For the molecule B1, the % inhibition of CD73 activity at 1 µg/ml antibody (COR-L23 cells, 4 h, LC/MS); cell TB19 x TC29 in assay [1] is 95%. Besides, the EC50 (nM) of inhibition of CD73 activity (adenosine by LC/MS) in assay [2] is 0.264 nM. Further, in assay [2], the EC50, fold lower than that of the antibody mixture was 50 fold. Besides, the Max Inhib. (projected maximal inhibition at saturating antibody) in assay [2] was found to be 95%. This molecule also came in with an inhibition of CD73 enzymatic activity on COR-L23 cells at 1 µg/mL in [2] of more than 95%. Moreover, the values for the koff in [3], in [4] and in assay [7] were 8.96e-05 s⁻¹, 0.006 s⁻¹ and 7.8e-05 s⁻¹, respectively. The kon in [3] amounted to 685000 M⁻¹ s⁻¹; in [5], 116000 M⁻¹ s⁻¹; in [6], 1.19e+06 M⁻¹ s⁻¹. In addition, the Kd in assay [8] stood at 114 pM. For the same molecule, the abundance of dissociation component (biphasic fit) in assay [9] is 9%; in assay [10] it was 91%. Besides, the abundance of association component (biphasic fit) in assay [11] is 45%; in assay [12], 55%.

B2: TB19/C16 (bispecific antibody, part only; not given: C16 arm, part only)
TB19 arm heavy chain: QEQLQESGPGLVKPSETLSLTCTVSGGSIRNNYYNWIRQPAGKGLEWIGRIYISGTTNSNPSLKSRVTMSIDTSKNQFSLKLSSVTAADTAIYYCAREHYVSGTSLDNWGQGTLVTVSS
TB19 arm light chain: EIVMTQSPTTLSLSPGERATLSCRASQSVNTNYFSWYQQKPGLTPRLLIYGTSTRATGIPARFSGSGSGTDFTLTISSLQPEDFGIYYCQQDYNLPYTFGQGTYLEIKRTVAAPSVFIFPPSDEQLKSGTASVVCLLNNFYPREAKVQWKVDNALQSGNSQESVTEQDSKDSTYSLSSTLTLSKADYEKHKVYACEVTHQGLSSPVTKSFNRGEC
Turning to B2, the % inhibition of CD73 activity at 1 µg/ml antibody (COR-L23 cells, 4 h, LC/MS); cell TB19 x C16 in assay [1] was 85%.

B3: TB19/TA10 (bispecific antibody, part only; not given: TA10 arm, part only)
TB19 arm heavy chain: QEQLQESGPGLVKPSETLSLTCTVSGGSIRNNYYNWIRQPAGKGLEWIGRIYISGTTNSNPSLKSRVTMSIDTSKNQFSLKLSSVTAADTAIYYCAREHYVSGTSLDNWGQGTLVTVSS
TB19 arm light chain: EIVMTQSPTTLSLSPGERATLSCRASQSVNTNYFSWYQQKPGLTPRLLIYGTSTRATGIPARFSGSGSGTDFTLTISSLQPEDFGIYYCQQDYNLPYTFGQGTYLEIKRTVAAPSVFIFPPSDEQLKSGTASVVCLLNNFYPREAKVQWKVDNALQSGNSQESVTEQDSKDSTYSLSSTLTLSKADYEKHKVYACEVTHQGLSSPVTKSFNRGEC
For the molecule B3, in assay [1], the % inhibition of CD73 activity at 1 µg/ml antibody (COR-L23 cells, 4 h, LC/MS); cell TB19 x TA10 turned out to be 80%.

B4: TB19/F1.2 (bispecific antibody, part only; not given: F1.2 arm, part only)
TB19 arm heavy chain: QEQLQESGPGLVKPSETLSLTCTVSGGSIRNNYYNWIRQPAGKGLEWIGRIYISGTTNSNPSLKSRVTMSIDTSKNQFSLKLSSVTAADTAIYYCAREHYVSGTSLDNWGQGTLVTVSS
TB19 arm light chain: EIVMTQSPTTLSLSPGERATLSCRASQSVNTNYFSWYQQKPGLTPRLLIYGTSTRATGIPARFSGSGSGTDFTLTISSLQPEDFGIYYCQQDYNLPYTFGQGTYLEIKRTVAAPSVFIFPPSDEQLKSGTASVVCLLNNFYPREAKVQWKVDNALQSGNSQESVTEQDSKDSTYSLSSTLTLSKADYEKHKVYACEVTHQGLSSPVTKSFNRGEC
In the case of B4, the % inhibition of CD73 activity at 1 µg/ml antibody (COR-L23 cells, 4 h, LC/MS); cell TB19 x F1.2 in assay [1] worked out at 47%.

B5: TB19/E23 (bispecific antibody, part only; not given: E23 arm, part only)
TB19 arm heavy chain: QEQLQESGPGLVKPSETLSLTCTVSGGSIRNNYYNWIRQPAGKGLEWIGRIYISGTTNSNPSLKSRVTMSIDTSKNQFSLKLSSVTAADTAIYYCAREHYVSGTSLDNWGQGTLVTVSS
TB19 arm light chain: EIVMTQSPTTLSLSPGERATLSCRASQSVNTNYFSWYQQKPGLTPRLLIYGTSTRATGIPARFSGSGSGTDFTLTISSLQPEDFGIYYCQQDYNLPYTFGQGTYLEIKRTVAAPSVFIFPPSDEQLKSGTASVVCLLNNFYPREAKVQWKVDNALQSGNSQESVTEQDSKDSTYSLSSTLTLSKADYEKHKVYACEVTHQGLSSPVTKSFNRGEC
Take B5: in assay [1], the % inhibition of CD73 activity at 1 µg/ml antibody (COR-L23 cells, 4 h, LC/MS); cell TB19 x E23 was determined as 50%.

B6: TB19/TA9 (bispecific antibody, part only; not given: TA9 arm, part only)
TB19 arm heavy chain: QEQLQESGPGLVKPSETLSLTCTVSGGSIRNNYYNWIRQPAGKGLEWIGRIYISGTTNSNPSLKSRVTMSIDTSKNQFSLKLSSVTAADTAIYYCAREHYVSGTSLDNWGQGTLVTVSS
TB19 arm light chain: EIVMTQSPTTLSLSPGERATLSCRASQSVNTNYFSWYQQKPGLTPRLLIYGTSTRATGIPARFSGSGSGTDFTLTISSLQPEDFGIYYCQQDYNLPYTFGQGTYLEIKRTVAAPSVFIFPPSDEQLKSGTASVVCLLNNFYPREAKVQWKVDNALQSGNSQESVTEQDSKDSTYSLSSTLTLSKADYEKHKVYACEVTHQGLSSPVTKSFNRGEC
For B6, the % inhibition of CD73 activity at 1 µg/ml antibody (COR-L23 cells, 4 h, LC/MS); cell TB19 x TA9 in [1] worked out at 70%.

B7: TB19/AS30 (bispecific antibody, part only; not given: AS30 arm, constant regions, V domains shown, not shown: another chain or arm of the molecule; a dimerising Fc or GST; small tags and cut ends)
VH: QEQLQESGPGLVKPSETLSLTCTVSGGSIRNNYYNWIRQPAGKGLEWIGRIYISGTTNSNPSLKSRVTMSIDTSKNQFSLKLSSVTAADTAIYYCAREHYVSGTSLDNWGQGTLVTVSS
VL: EIVMTQSPTTLSLSPGERATLSCRASQSVNTNYFSWYQQKPGLTPRLLIYGTSTRATGIPARFSGSGSGTDFTLTISSLQPEDFGIYYCQQDYNLPYTFGQGTYLEIK
As to B7, the % inhibition of CD73 activity at 1 µg/ml antibody (COR-L23 cells, 4 h, LC/MS); cell TB19 x AS30 (monovalent) in assay [1] was -1%. In assay [3], this molecule showed a koff of 0.00069 s⁻¹ and a kon of 165000 M⁻¹ s⁻¹. Also, in [8], the dissociation constant (Kd) turned out to be 4180 pM.

One may read the koff as a measure of how fast the partners let go of each other. The term kon denotes the rate constant with which the complex forms. A word on the Kd: it is a measure of binding affinity in units of concentration. Low values mean tighter binding, high ones weaker binding.

These data come from patent US20220403041A1 (Sanofi, published 2022).
